The target in experiment [1] is biotinylated human N1 ectodomain fragment containing EGF repeats 6–15 (human) (UniProt P46531). As to the kind of experiment: BLI; BLItz instrument; biotinylated Notch1 fragment loaded on streptavidin biosensors, dipped into ligand samples of varying concentration until equilibrium; HBS-P buffer with 0.005% surfactant P20 and 5 mM CaCl2; equilibrium curves fitted with a one site specific binding model.

The target of experiment [2] is Notch1 expressed in N1rep ES cells (UniProt Q01705).
Chain of Notch1 expressed in N1rep ES cells (Q01705 19-2531): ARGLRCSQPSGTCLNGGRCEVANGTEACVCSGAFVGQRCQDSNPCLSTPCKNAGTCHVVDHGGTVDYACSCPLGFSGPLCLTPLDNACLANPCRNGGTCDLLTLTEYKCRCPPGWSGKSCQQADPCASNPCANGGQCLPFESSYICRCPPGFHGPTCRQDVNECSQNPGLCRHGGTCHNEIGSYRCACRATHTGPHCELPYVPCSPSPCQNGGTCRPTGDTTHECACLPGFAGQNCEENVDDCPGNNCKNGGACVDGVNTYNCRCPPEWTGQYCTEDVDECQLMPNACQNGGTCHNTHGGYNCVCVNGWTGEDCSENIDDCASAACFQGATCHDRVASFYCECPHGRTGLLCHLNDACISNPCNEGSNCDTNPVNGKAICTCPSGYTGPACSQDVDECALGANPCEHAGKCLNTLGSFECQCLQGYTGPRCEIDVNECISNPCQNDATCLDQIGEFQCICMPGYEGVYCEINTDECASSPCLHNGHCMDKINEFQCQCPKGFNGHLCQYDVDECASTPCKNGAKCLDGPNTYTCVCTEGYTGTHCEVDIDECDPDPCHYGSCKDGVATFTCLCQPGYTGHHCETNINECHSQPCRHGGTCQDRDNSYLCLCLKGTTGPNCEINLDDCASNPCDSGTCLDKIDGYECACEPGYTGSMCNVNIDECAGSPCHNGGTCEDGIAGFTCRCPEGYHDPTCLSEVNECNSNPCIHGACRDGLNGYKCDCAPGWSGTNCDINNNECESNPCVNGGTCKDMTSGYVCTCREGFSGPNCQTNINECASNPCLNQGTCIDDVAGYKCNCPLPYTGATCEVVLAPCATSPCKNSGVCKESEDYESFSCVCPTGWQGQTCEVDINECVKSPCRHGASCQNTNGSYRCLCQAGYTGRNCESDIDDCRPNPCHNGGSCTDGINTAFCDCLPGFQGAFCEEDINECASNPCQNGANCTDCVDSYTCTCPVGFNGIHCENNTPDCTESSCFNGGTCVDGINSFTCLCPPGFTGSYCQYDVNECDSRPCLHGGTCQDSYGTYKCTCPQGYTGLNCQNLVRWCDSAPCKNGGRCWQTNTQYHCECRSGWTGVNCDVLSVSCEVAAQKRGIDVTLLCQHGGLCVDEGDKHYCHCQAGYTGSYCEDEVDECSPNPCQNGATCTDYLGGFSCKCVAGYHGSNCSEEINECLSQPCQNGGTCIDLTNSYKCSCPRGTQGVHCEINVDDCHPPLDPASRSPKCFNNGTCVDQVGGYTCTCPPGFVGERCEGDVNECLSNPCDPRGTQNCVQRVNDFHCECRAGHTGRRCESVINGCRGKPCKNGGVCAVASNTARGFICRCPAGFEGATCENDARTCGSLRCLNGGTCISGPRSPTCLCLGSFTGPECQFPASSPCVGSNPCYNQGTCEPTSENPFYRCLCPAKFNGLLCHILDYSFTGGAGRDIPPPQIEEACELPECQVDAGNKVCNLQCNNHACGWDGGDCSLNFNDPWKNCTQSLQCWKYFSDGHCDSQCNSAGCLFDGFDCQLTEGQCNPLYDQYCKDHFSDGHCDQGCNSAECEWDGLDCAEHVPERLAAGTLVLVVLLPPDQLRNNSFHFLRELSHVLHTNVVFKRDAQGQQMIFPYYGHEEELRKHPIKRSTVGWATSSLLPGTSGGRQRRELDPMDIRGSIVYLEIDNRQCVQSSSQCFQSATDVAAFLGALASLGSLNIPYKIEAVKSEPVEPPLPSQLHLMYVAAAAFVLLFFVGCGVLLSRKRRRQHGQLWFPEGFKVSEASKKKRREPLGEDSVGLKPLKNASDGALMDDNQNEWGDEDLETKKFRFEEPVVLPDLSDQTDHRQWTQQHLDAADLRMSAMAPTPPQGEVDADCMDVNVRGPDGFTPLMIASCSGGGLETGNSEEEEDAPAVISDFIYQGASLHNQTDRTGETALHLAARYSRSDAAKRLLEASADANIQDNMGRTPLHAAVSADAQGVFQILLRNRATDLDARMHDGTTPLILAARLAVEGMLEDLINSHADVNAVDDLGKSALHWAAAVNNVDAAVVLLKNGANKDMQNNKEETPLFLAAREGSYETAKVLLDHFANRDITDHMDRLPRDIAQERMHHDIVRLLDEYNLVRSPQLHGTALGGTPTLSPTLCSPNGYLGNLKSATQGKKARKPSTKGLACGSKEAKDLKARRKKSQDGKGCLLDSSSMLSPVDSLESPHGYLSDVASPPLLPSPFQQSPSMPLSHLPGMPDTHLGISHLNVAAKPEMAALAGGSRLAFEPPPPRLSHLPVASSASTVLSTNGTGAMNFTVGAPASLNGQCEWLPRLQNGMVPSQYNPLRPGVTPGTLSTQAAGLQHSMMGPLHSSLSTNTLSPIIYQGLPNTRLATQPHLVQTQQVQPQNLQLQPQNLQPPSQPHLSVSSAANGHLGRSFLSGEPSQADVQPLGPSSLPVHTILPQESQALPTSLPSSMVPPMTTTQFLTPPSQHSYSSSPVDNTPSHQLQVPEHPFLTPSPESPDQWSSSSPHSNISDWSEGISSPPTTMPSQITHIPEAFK
For experiment [3] the target is unchanged. This is another data set of the same source.
Experiment [4] has as its target Notch2 expressed in N2rep ES cells (UniProt O35516).

The source of these data is publication PMC6202052.

Chain of biotinylated human N1 ectodomain fragment containing EGF repeats 6–15 (human) (P46531 216-604): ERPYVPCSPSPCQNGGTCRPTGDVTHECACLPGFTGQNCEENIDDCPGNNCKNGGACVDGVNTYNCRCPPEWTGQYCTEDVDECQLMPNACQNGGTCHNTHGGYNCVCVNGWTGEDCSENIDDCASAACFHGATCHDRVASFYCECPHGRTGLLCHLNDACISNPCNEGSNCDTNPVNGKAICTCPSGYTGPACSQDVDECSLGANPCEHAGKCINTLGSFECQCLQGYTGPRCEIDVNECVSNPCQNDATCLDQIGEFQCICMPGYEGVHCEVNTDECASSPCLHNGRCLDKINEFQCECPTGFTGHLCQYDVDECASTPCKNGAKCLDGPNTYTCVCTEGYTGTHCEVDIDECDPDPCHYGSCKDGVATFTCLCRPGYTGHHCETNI
Chain of mDLL4 (mouse DLL4, full length, expressed on ES cells) (Q9JI71 27-686): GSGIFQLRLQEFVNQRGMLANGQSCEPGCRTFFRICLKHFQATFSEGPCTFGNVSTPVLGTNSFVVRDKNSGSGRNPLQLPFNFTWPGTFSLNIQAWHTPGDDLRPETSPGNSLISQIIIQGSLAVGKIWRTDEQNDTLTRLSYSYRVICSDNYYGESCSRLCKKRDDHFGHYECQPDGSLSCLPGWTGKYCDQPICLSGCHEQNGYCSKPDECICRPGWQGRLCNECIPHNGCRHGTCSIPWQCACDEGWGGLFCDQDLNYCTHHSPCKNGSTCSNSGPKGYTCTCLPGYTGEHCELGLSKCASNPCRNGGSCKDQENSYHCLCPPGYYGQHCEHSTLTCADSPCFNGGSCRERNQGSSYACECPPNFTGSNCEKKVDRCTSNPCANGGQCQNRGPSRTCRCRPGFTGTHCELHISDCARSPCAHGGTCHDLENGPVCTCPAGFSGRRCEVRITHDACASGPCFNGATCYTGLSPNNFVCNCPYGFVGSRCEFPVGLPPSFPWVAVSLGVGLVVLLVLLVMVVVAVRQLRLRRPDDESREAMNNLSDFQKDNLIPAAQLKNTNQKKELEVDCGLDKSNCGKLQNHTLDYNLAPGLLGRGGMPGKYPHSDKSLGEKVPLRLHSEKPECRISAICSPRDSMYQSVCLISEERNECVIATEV
Chain of mDLL1 (mouse DLL1, full length, expressed on ES cells) (Q61483 18-722): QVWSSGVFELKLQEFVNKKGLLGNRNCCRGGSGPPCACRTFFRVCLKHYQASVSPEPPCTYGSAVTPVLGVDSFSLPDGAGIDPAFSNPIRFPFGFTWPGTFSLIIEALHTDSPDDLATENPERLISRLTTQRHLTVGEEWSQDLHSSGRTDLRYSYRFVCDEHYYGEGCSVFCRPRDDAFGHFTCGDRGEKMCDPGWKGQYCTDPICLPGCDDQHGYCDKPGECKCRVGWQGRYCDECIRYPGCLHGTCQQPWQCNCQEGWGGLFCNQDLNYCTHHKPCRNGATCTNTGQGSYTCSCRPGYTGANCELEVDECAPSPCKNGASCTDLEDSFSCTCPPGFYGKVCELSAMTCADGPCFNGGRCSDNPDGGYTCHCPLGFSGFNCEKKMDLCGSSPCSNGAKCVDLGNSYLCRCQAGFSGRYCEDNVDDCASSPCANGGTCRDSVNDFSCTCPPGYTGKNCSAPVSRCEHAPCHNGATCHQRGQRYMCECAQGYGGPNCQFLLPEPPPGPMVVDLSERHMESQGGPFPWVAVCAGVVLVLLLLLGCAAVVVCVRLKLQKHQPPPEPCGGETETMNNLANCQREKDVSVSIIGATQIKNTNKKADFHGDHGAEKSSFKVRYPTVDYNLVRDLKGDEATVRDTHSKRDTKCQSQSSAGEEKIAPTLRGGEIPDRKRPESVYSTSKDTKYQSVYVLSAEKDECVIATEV

The Kd is a measure of binding affinity in units of concentration. Low readings indicate higher affinity, high ones lower affinity. In experiment [1], “D1contD4 (DLL1 N-terminus through EGF5 with the N1 contact amino acids of the MNNL and DSL domains replaced by those of DLL4) (domain or fragment)” returned a Kd of 326 nM.
On the same count and under the same terms, next, “D4^N109G (DLL4 N-terminus through EGF5 with the N109G mutation) (from UniProt Q9JI71 27-686) (domain or fragment)”: 341 nM.
On the same count and under the same terms, next, “D4contD1 (DLL4 N-terminus through EGF5 with the N1 contact amino acids of the MNNL and DSL domains replaced by those of DLL1) (domain or fragment)”: 327 nM.
In experiment [2], “mDLL1 (mouse DLL1, full length, expressed on ES cells) (from UniProt Q61483 18-722) (ligand)” gave a luciferase Notch reporter in N1rep ES cells co-cultured with DLL1-expressing ES cells, against the basal signal with E14 ES cells of 10 fold.
Consider “mDLL4 (mouse DLL4, full length, expressed on ES cells) (from UniProt Q9JI71 27-686) (ligand)”, for which, in experiment [3], the luciferase Notch reporter in N1rep ES cells co-cultured with ligand-expressing ES cells; activation by DLL4 as fold of activation by DLL1, non-normalized was 12.5 fold of DLL1; the luciferase Notch reporter in N1rep ES cells co-cultured with ligand-expressing ES cells; activation by DLL4 normalized to DLL1 activation and corrected for protein expression and cell surface levels is 9.42 fold of DLL1. Also, in experiment [4], the luciferase Notch reporter in N2rep ES cells co-cultured with ligand-expressing ES cells; activation by DLL4 as fold of activation by DLL1, non-normalized is 0.468 fold of DLL1; the luciferase Notch reporter in N2rep ES cells co-cultured with ligand-expressing ES cells; activation by DLL4 normalized to DLL1 activation and corrected for protein expression and cell surface levels was 0.35 fold of DLL1.
